Laboratory results taken from patent US20250197499A1 (STEALTH IO, published 2025).
Values belong to the binder of their own block, whether it stands above or below them.

Tests used:
[1] = target: T1, Recombinant human PD-L2-His tag (ACROBiosystems, #PD2-H5220) (human, UniProt Q9BQ51 20-219); assay: Octet RED96e; PD-L2-His loaded at 10 µg/ml on HIS1K sensor; sample 75,8 nM
T1 construct: Bought protein; also called sPD-L2; human PD-L2-His tag protein; not shown: His tag
T1 sequence (looked up): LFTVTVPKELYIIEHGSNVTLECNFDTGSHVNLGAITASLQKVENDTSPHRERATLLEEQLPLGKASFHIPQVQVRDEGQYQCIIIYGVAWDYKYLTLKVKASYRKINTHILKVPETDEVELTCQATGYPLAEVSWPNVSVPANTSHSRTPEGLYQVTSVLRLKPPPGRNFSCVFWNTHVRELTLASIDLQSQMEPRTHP
Description: (§1) FIG. 4a is a graph of Octet binding studies on sPD-L2. Recombinant human PD-L2-His tag (ACROBiosystems, #PD2-H5220) was loaded to His-sensor (HIS1 K (Anti-Penta-His)) at 10 μg/ml and the binding of each construct was evaluated by Octet RED96e.
(§2) FIG. 4c is a graph depicting the KD values of anti-CD28/sPD-1 constructs on human PD-L2-His tag protein by Octet RED96e. The equilibrium dissociation constant (KD) is calculated as the ratio koff/kₒₙ (with koff:dissociation rates, and kₒₙ:association rates).
(§3) Anti-CD28/sPD-1 antibody fusion constructs were assessed for their ability to bind PD-1 ligands, PD-L1 and PD-L2 by Octet RED96e. Recombinant human PD-L1-His tag (ACROBiosystems, #PD1-H5229) or recombinant human PD-L2-His tag (ACROBiosystems, #PD2-H5220) were loaded to His-sensor (HIS1 K (Anti-Penta-His)) at 10 μg/ml. […] FIG. 3c is a summary of affinity (measured as Kd, M) for each construct on human PD-L1. […] FIG. 4c is a summary of affinity (measured as Kd, M) for each construct on human PD-L2.

[2] = target: T2, Recombinant human PD-L1-His tag (ACROBiosystems, #PD1-H5229) (human, UniProt Q9NZQ7 19-238); assay: Octet RED96e; PD-L1-His loaded at 10 µg/ml on HIS1K sensor; sample 75,8 nM
T2 construct: Bought protein; also called sPD-L1; human PD-L1-His tag protein; not shown: His tag
Description: (§4) FIG. 3a is a graph of Octet binding studies on sPD-L1. Recombinant human PD-L1-His tag (ACROBiosystems, #PD1-H5229) was loaded to His-sensor (HIS1K (Anti-Penta-His)) at 10 μg/ml and the binding of each construct was evaluated by Octet RED96e.
(§5) FIG. 3c is a graph depicting the KD values of anti-CD28/sPD-1 constructs on human PD-L1-His tag protein by Octet RED96e. The equilibrium dissociation constant (KD) is calculated as the ratio koff/kₒₙ (with koff:dissociation rates, and kₒₙ:association rates).
as §3

[3] = target: T2, Recombinant human PD-L1-His tag …; assay: Octet RED96e; PD-L1-His loaded at 10 µg/ml on HIS1K sensor; sample 378,8 nM
Description: as §4, §5, §3

[4] = target: T1, Recombinant human PD-L2-His tag …; assay: Octet RED96e; PD-L2-His loaded at 10 µg/ml on HIS1K sensor; sample 378,8 nM
Description: as §1, §2, §3

[5] = target: T1, Recombinant human PD-L2-His tag …; assay: Octet RED96e; PD-L2-His loaded at 10 µg/ml on HIS1K sensor; sample 277,8 nM
Description: as §1, §2, §3

[6] = target: T2, Recombinant human PD-L1-His tag …; assay: Octet RED96e; PD-L1-His loaded at 10 µg/ml on HIS1K sensor; sample 277,8 nM
Description: as §4, §5, §3

[7] = target: T1, Recombinant human PD-L2-His tag …; assay: Octet RED96e; PD-L2-His loaded at 10 µg/ml on HIS1K sensor; sample 55,6 nM
Description: as §1, §2, §3

[8] = target: T2, Recombinant human PD-L1-His tag …; assay: Octet RED96e; PD-L1-His loaded at 10 µg/ml on HIS1K sensor; sample 55,6 nM
Description: as §4, §5, §3

[9] = target: T2, Recombinant human PD-L1-His tag …; assay: Octet RED96e; PD-L1-His loaded at 10 µg/ml on HIS1K sensor; sample 66,7 nM; negative control, response about zero, round fit values
Description: as §4, §5, §3

[10] = target: T1, Recombinant human PD-L2-His tag …; assay: Octet RED96e; PD-L2-His loaded at 10 µg/ml on HIS1K sensor; sample 66,7 nM; negative control, response about zero, round fit values
Description: as §1, §2, §3

Kd [1]: 10 nM
koff [1]: 0.00283 s⁻¹
kon [1]: 282000 M⁻¹ s⁻¹
Kd [2]: 23.3 nM
koff [2]: 0.013 s⁻¹
kon [2]: 559000 M⁻¹ s⁻¹
Kd [3]: 35.1 nM
koff [3]: 0.0122 s⁻¹
kon [3]: 348000 M⁻¹ s⁻¹
Kd [4]: 23.7 nM
koff [4]: 0.00318 s⁻¹
kon [4]: 134000 M⁻¹ s⁻¹
B1: monovalent anti-CD28/sPD-1 wt (bispecific antibody)
light: DIELTQSPASLAVSLGQRATISCRASESVEYYVTSLMQWYQQKPGQPPKLLIFAASNVESGVPARFSGSGSGTNFSLNIHPVDEDDVAMYFCQQSRKVPYTFGGGTKLEIKRTVAAPSVFIFPPSDEQLKSGTASVVCLLNNFYPREAKVQWKVDNALQSGNSQESVTEQDSKDSTYSLSSTLTLSKADYEKHKVYACEVTHQGLSSPVTKSFNRGEC
heavy: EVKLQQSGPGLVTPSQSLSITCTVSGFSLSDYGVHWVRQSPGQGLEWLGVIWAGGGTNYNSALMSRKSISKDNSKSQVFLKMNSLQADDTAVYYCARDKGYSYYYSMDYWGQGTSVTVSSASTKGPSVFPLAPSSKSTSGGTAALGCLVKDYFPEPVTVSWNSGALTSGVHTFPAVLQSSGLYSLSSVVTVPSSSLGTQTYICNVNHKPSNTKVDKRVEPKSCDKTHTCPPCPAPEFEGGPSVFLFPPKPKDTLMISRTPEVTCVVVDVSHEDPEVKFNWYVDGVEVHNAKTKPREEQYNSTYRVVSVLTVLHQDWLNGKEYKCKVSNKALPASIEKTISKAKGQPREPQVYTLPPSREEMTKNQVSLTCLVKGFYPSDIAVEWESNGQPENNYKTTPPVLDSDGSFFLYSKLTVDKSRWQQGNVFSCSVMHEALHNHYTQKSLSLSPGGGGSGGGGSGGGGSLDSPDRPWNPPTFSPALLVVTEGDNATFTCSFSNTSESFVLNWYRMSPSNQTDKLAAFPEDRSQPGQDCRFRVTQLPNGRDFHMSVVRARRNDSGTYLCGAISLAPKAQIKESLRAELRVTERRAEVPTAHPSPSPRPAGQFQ
chain: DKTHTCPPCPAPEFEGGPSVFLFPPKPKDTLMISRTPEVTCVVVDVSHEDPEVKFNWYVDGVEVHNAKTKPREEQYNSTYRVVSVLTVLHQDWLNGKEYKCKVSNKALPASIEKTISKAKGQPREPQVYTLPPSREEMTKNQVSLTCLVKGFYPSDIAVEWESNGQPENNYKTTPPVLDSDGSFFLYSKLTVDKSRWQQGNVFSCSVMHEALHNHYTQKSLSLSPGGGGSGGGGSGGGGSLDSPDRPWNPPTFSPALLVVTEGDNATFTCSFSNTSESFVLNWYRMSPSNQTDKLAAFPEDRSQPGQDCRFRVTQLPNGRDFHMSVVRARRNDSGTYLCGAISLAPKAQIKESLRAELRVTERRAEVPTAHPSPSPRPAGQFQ
notes: also called Monovalent anti-CD28/sPD-1 Wild type structure; bispecific protein complex A:B-C-X:C'-Y

Kd [1]: 1.05 nM
koff [1]: 0.000342 s⁻¹
kon [1]: 324000 M⁻¹ s⁻¹
Kd [2]: 1.57 nM
koff [2]: 0.00083 s⁻¹
kon [2]: 528000 M⁻¹ s⁻¹
Kd [3]: 2.17 nM
koff [3]: 0.00061 s⁻¹
kon [3]: 281000 M⁻¹ s⁻¹
Kd [4]: 1.33 nM
koff [4]: 0.000183 s⁻¹
kon [4]: 138000 M⁻¹ s⁻¹
B2: monovalent anti-CD28/sPD-1 mut (bispecific antibody)
light: B1 light
heavy: EVKLQQSGPGLVTPSQSLSITCTVSGFSLSDYGVHWVRQSPGQGLEWLGVIWAGGGTNYNSALMSRKSISKDNSKSQVFLKMNSLQADDTAVYYCARDKGYSYYYSMDYWGQGTSVTVSSASTKGPSVFPLAPSSKSTSGGTAALGCLVKDYFPEPVTVSWNSGALTSGVHTFPAVLQSSGLYSLSSVVTVPSSSLGTQTYICNVNHKPSNTKVDKRVEPKSCDKTHTCPPCPAPEFEGGPSVFLFPPKPKDTLMISRTPEVTCVVVDVSHEDPEVKFNWYVDGVEVHNAKTKPREEQYNSTYRVVSVLTVLHQDWLNGKEYKCKVSNKALPASIEKTISKAKGQPREPQVYTLPPSREEMTKNQVSLTCLVKGFYPSDIAVEWESNGQPENNYKTTPPVLDSDGSFFLYSKLTVDKSRWQQGNVFSCSVMHEALHNHYTQKSLSLSPGGGGSGGGGSGGGGSLDSPDRPWNPPTFSPALLVVTEGDNATFTCSFSNTSESFVLNWYRMSPSNQTDKLAAFPEDRSQPGQDCRFRVTQLPNGRDFHMSVVRARRNDSGTYLCSAISLAPYIQIKESLRAELRVTERRAEVPTAHPSPSPRPAGQFQ
chain: DKTHTCPPCPAPEFEGGPSVFLFPPKPKDTLMISRTPEVTCVVVDVSHEDPEVKFNWYVDGVEVHNAKTKPREEQYNSTYRVVSVLTVLHQDWLNGKEYKCKVSNKALPASIEKTISKAKGQPREPQVYTLPPSREEMTKNQVSLTCLVKGFYPSDIAVEWESNGQPENNYKTTPPVLDSDGSFFLYSKLTVDKSRWQQGNVFSCSVMHEALHNHYTQKSLSLSPGGGGSGGGGSGGGGSLDSPDRPWNPPTFSPALLVVTEGDNATFTCSFSNTSESFVLNWYRMSPSNQTDKLAAFPEDRSQPGQDCRFRVTQLPNGRDFHMSVVRARRNDSGTYLCSAISLAPYIQIKESLRAELRVTERRAEVPTAHPSPSPRPAGQFQ
notes: The sPD-1 fragments carry G124S, K131Y and A132I (numbering of full-length human PD-1); also called Mono Mut; Monovalent anti-CD28/sPD-1 Mutated structure

Kd [5]: 0.883 nM
koff [5]: 0.000153 s⁻¹
kon [5]: 174000 M⁻¹ s⁻¹
Kd [6]: 1.65 nM
koff [6]: 0.00055 s⁻¹
kon [6]: 334000 M⁻¹ s⁻¹
Kd [7]: 0.774 nM
koff [7]: 0.0003 s⁻¹
kon [7]: 387000 M⁻¹ s⁻¹
Kd [8]: 1.21 nM
koff [8]: 0.000698 s⁻¹
kon [8]: 578000 M⁻¹ s⁻¹
B3: bivalent anti-CD28/sPD-1 mut (bispecific antibody, human IgG1, kappa)
light: B1 light
heavy: B2 heavy
notes: The sPD-1 fragments carry G124S, K131Y and A132I; also called Bi Mut; Bivalent anti-CD28/sPD-1 Mutated structure

Kd [9]: 100 nM
koff [9]: 0.001 s⁻¹
kon [9]: 10000 M⁻¹ s⁻¹
Kd [10]: 100 nM
koff [10]: 0.001 s⁻¹
kon [10]: 10000 M⁻¹ s⁻¹
B4: Monoclonal anti-CD28 (9.3) mAb (GeneTex, #GTX14664) (antibody, V domains shown)
VH: EVKLQQSGPGLVTPSQSLSITCTVSGFSLSDYGVHWVRQSPGQGLEWLGVIWAGGGTNYNSALMSRKSISKDNSKSQVFLKMNSLQADDTAVYYCARDKGYSYYYSMDYWGQGTSVTVSS
VL: DIELTQSPASLAVSLGQRATISCRASESVEYYVTSLMQWYQQKPGQPPKLLIFAASNVESGVPARFSGSGSGTNFSLNIHPVDEDDVAMYFCQQSRKVPYTFGGGTKLEIK
notes: Bought 9.3 mAb without sPD-1 fusion; also called monoclonal antibody 9.3
